# Experimental data reported in patent US20260022175A1 (Chugai, published 2026).
# T1: human FcγRIIb extracellular domain with C-terminal His-tag (human, UniProt P31994 43-217)
# T1 construct: extracellular domain; also called hFcγR IIb
# T1 sequence (looked up): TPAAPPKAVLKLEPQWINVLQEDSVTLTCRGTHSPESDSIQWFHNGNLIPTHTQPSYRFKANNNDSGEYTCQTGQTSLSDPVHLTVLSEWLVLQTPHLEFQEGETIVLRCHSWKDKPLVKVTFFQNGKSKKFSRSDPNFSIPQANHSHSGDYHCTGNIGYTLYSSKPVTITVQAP
# T2: human FcγRIIa H allotype extracellular domain with C-terminal His-tag (human, UniProt P12318 34-217)
# T2 construct: extracellular domain; also called hFcγR IIa H
# T2 sequence (looked up): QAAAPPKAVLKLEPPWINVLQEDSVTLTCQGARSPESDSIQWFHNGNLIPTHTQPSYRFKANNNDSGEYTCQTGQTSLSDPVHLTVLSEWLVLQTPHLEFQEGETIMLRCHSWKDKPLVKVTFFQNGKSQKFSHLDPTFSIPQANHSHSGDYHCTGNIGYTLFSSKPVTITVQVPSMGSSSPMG
# T3: human FcγRIIa R allotype extracellular domain with C-terminal His-tag (human, UniProt P12318 34-217)
# T3 construct: extracellular domain; also called hFcγR IIa R
# T3 sequence (looked up): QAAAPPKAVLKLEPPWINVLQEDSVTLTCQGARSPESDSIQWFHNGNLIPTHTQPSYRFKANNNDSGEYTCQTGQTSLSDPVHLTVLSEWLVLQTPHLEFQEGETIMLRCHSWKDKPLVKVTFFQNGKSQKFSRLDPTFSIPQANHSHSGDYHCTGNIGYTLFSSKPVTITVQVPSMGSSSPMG
# Tests used:
# [1] = molecular target: T1, human FcγRIIb extracellular domain with …; experiment: SPR; FcγRIIb at 1000 nM, bound amount per unit captured Ab
# Protocol: (§1) The interaction between the generated antibodies and human FcγRs was analyzed by the following method using Biacore T200. 50 mM Na-Phosphate, 150 mM NaCl, 0.05% Tween20 (pH 7.4) was used as the running buffer, and the assay was performed at 25° C. For the sensor chips, Series S SA (GE Healthcare) chips onto which CaptureSelect Human Fab-lambda Kinetics Biotin Conjugate (Thermo Fisher Scientific) was immobilized were used. The antibodies of interest were captured onto these chips and each FcγR diluted in the running buffer was allowed to interact with them. Chips were regenerated with 10 mM Glycine-HCl (pH 1.5) and 25 mM NaOH, and assay was performed by repeatedly capturing antibodies. The dissociation constants KD (mol/L) for FcγRs of each antibody were calculated using Biacore T200 Evaluation Software 2.0, using the 1:1 Langmuir binding model for FcγRIa and FcγRIIIa and the steady state affinity model for FcγRIIa. For FcγRIIb, the binding amount of FcγRIIb per unit amount of antibody was calculated by correcting the binding amount of FcγRIIb obtained from the sensorgram obtained by the measurement with the amount of antibody captured onto the chip surface.
# [2] = molecular target: T1, human FcγRIIb extracellular domain with …; experiment: SPR; binding amount divided by that of 04H1637-G1m/04L1610-lam1
# [3] = molecular target: T4, human FcγRIIIa F allotype extracellular domain with C-terminal His-tag (human, UniProt P08637 17-208); experiment: SPR Biacore T200, Ab captured via Fab-lambda, pH 7.4, 25C;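 further: antibodies captured on a streptavidin chip carrying biotinylated anti-Fab-lambda, with each FcγR injected as analyte in phosphate buffer. KD fitted by 1:1 Langmuir or steady-state model depending on receptor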
# T4 construct: extracellular domain; also called hFcγR IIIa F
# [4] = molecular target: T5, human FcγRIIIa V allotype extracellular domain with C-terminal His-tag (human, UniProt P08637 17-208); experiment: as above
# T5 construct: extracellular domain; also called hFcγR IIIa V
# [5] = molecular target: T2, human FcγRIIa H allotype extracellular …; experiment: as above
# [6] = molecular target: T6, human FcγRIa extracellular domain with C-terminal His-tag (human, UniProt P12314 16-292); experiment: as above
# T6 construct: extracellular domain; also called hFcγR Ia; hFcγRIa
# [7] = molecular target: T3, human FcγRIIa R allotype extracellular …; experiment: as above
# [8] = molecular target: T4, human FcγRIIIa F allotype extracellular …; experiment: SPR; KD of 04H1637-G1m/04L1610-lam1 divided by KD of variant;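 further: biacore T200 SPR at 25 °C, antibodies captured on anti-Fab-lambda SA chip with receptor as analyte, running buffer pH 7.4 for FcγRs and pH 6.0 for FcRn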
# Protocol: as §1
# (§2) The interaction between the generated antibodies and human FcRn was analyzed by the following method using Biacore T200. 50 mM Na-Phosphate, 150 mM NaCl, 0.05% Tween20 (pH 6.0) was used as the running buffer, and the assay was performed at 25° C. For the sensor chip, Series S SA (GE Healthcare) chips onto which CaptureSelect Human Fab-lambda Kinetics Biotin Conjugate (Thermo Fisher Scientific) was immobilized were used. The antibodies of interest were captured onto these chips and FcRn diluted in the running buffer was allowed to interact with them. Chips were regenerated with 10 mM Glycine-HCl (pH 1.5) and 25 mM NaOH, and assay was performed by repeatedly capturing antibodies. The dissociation constant for FcRn of each antibody was calculated using the steady state model, using Biacore T200 Evaluation Software 2.0.
# [9] = molecular target: T5, human FcγRIIIa V allotype extracellular …; experiment: as above
# Protocol: as §1, §2
# [10] = molecular target: T2, human FcγRIIa H allotype extracellular …; experiment: as above
# Protocol: as §1, §2
# [11] = molecular target: T6, human FcγRIa extracellular domain with …; experiment: as above
# Protocol: as §1, §2
# [12] = molecular target: T3, human FcγRIIa R allotype extracellular …; experiment: as above
# Protocol: as §1, §2
# T6 sequence (P12314 16-292): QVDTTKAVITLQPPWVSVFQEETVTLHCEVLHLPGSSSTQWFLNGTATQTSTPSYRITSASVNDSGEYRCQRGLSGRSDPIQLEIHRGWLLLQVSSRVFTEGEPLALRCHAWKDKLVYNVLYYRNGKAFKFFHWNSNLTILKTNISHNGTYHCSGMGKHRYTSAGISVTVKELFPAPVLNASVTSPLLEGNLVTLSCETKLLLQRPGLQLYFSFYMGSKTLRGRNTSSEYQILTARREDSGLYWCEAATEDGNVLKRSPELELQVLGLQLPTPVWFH
# T4 sequence (P08637 17-208): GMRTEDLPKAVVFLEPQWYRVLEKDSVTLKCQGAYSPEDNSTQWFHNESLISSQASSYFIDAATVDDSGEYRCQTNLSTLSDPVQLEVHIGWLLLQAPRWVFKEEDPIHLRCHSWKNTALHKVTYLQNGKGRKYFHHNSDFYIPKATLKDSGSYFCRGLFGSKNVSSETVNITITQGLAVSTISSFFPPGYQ
# T5 sequence (P08637 17-208 F176V): as the sequence (P08637 17-208) above, with F160V counted along it
Binding amount [1],Relative binding amount [2],Kd [3] [nM],Kd [4] [nM],Kd [5] [nM],Kd [6] [nM],Kd [7] [nM],Relative value to KD between G1m and hFcγRs [8],Relative value to KD between G1m and hFcγRs [9],Relative value to KD between G1m and hFcγRs [10],Relative value to KD between G1m and hFcγRs [11],Relative value to KD between G1m and hFcγRs [12],Binder
0.007,0.9,3.4,1.9,410,0.04,1200,406,126,3.6,1.2,1.6,"04H1637-Kn125/04L1610-lam1//04H1637-Hl076/04L1610-lam1 (antibody, human IgG1, lambda, Heterodimerized antibody, Fc variant of WO 2013/002362; also called 04H1637-Kn125/04L1610-lam1//04H1637-H1076/04L1610-lam1) heavy 1: QVQLVESGGGLVKPGGSLRLSCAASGFTFSSKTMNWVRQAPGKGLEWVSSISTQSHYIYYAESVRGRFTISRDNAKNSLYLQMNSLRAEDTAVYYCARYGKREDMLWVFDYWGQGTLVTVSSASTKGPSVFPLAPSSKSTSGGTAALGCLVKDYFPEPVTVSWNSGALTSGVHTFPAVLQSSGLYSLSSVVTVPSSSLGTQTYICNVNHKPSNTKVDKKVEPKSCDKTHTCPPCPAPEYQWGPMVFLFPPKPKDTLMISRTPEVTCVVVDVSDEEPEVKFNWYVDGVEVHNAKTKPREEQYNATYRVVSVLTVLHQDWLNGKEYKCKVSNKALPAPIEKTISKAKGQPREPQVCTLPPSRDELTKNQVSLWCLVKGFYPSDIAVEWESNGQPENNYKTTPPVLDSDGSFFLYSKLTVDKSRWQQGNVFSCSVMHEALHNHYTQKSLSLSP heavy 2: QVQLVESGGGLVKPGGSLRLSCAASGFTFSSKTMNWVRQAPGKGLEWVSSISTQSHYIYYAESVRGRFTISRDNAKNSLYLQMNSLRAEDTAVYYCARYGKREDMLWVFDYWGQGTLVTVSSASTKGPSVFPLAPSSKSTSGGTAALGCLVKDYFPEPVTVSWNSGALTSGVHTFPAVLQSSGLYSLSSVVTVPSSSLGTQTYICNVNHKPSNTKVDKKVEPKSCDKTHTCPPCPAPELLGGPSVFLFPPKPKDTLMISRTPEVTCVVVDVSHEEPEVKFNWYVDGVEVHNAKTKPREEQYNSTYRVVSVLTVLHQDWLNGKEYKCKVSNDALPMPIEETISKAKGQPREPQVYTLPPSRCELTKNQVSLSCAVKGFYPSDIAVEWESNGQPENNYKTTPPVLDSDGSFFLVSKLTVDKSRWQQGNVFSCSVMHEALHNHYTQKSLSLSP light: QSALTQPPSASGSPGQSVTISCEGPSTGVGDYNWVHWYQQHPGKAPKLMIYFTSKKPSGVPDRFSGSKSGNTASLTVSGLQAEDEADYYCQTYAAPLGPMFGGGTKLTVLGQPKAAPSVTLFPPSSEELQANKATLVCLISDFYPGAVTVAWKADSSPVKAGVETTTPSKQSNNKYAASSYLSLTPEQWKSHRSYSCQVTHEGSTVEKTVAPTECS"
0.03,3.7,3.6,1.8,39,0.076,110,382,131,37.5,0.6,18.7,"04H1637-Kn462/04L1610-lam1//04H1637-Hl445/04L1610-lam1 (antibody, human IgG1, lambda, Heterodimerized antibody; also called 04H1637-Kn462/04L1610-lam1//04H1637-H1445/04L1610-lam1) heavy 1: QVQLVESGGGLVKPGGSLRLSCAASGFTFSSKTMNWVRQAPGKGLEWVSSISTQSHYIYYAESVRGRFTISRDNAKNSLYLQMNSLRAEDTAVYYCARYGKREDMLWVFDYWGQGTLVTVSSASTKGPSVFPLAPSSKSTSGGTAALGCLVKDYFPEPVTVSWNSGALTSGVHTFPAVLQSSGLYSLSSVVTVPSSSLGTQTYICNVNHKPSNTKVDKKVEPKSCDKTHTCPPCPAPEFQWGPMVFLFPPKPKDVLMISRTPEVTCVVVDVSDEEPEVKFNWYVDGVEVHNAKTKPREEQYNATYRVVSVLPVLHQDWLNGKEYKCKVSNDALPAPIEKTISKAKGQPREPQVCTLPPSRDELTKNQVSLWCLVKGFYPSDIAVEWESNGQPENNYKTTPPVLDSDGSFFLYSKLTVDKSRWQQGNVFSCSVMHEALHNHYTQKSLSLSP heavy 2: QVQLVESGGGLVKPGGSLRLSCAASGFTFSSKTMNWVRQAPGKGLEWVSSISTQSHYIYYAESVRGRFTISRDNAKNSLYLQMNSLRAEDTAVYYCARYGKREDMLWVFDYWGQGTLVTVSSASTKGPSVFPLAPSSKSTSGGTAALGCLVKDYFPEPVTVSWNSGALTSGVHTFPAVLQSSGLYSLSSVVTVPSSSLGTQTYICNVNHKPSNTKVDKKVEPKSCDKTHTCPPCPAPELLAGPSVFLFPPKPKDVLMISRTPEVTCVVVDVSHEEPEVKFNWYVDGVEVHNAKTKPREEQYNATYRVVSVLPVLHQDWLNGKEYKCKVSNDALPKPDEETISKAKGQPREPQVYTLPPSRCELTKNQVSLSCAVKGFYPSDIAVEWESNGQPENNYKTTPPVLDSDGSFFLVSKLTVDKSRWQQGNVFSCSVMHEALHNHYTQKSLSLSP light: QSALTQPPSASGSPGQSVTISCEGPSTGVGDYNWVHWYQQHPGKAPKLMIYFTSKKPSGVPDRFSGSKSGNTASLTVSGLQAEDEADYYCQTYAAPLGPMFGGGTKLTVLGQPKAAPSVTLFPPSSEELQANKATLVCLISDFYPGAVTVAWKADSSPVKAGVETTTPSKQSNNKYAASSYLSLTPEQWKSHRSYSCQVTHEGSTVEKTVAPTECS"
0.025,3.1,2.2,1.1,130,0.042,190,616,226,11.1,1.2,10.7,"04H1637-Kn461/04L1610-lam1//04H1637-Hl443/04L1610-lam1 (antibody, human IgG1, lambda, Heterodimerized antibody; also called 04H1637-Kn461/04L1610-lam1//04H1637-H1443/04L1610-lam1) heavy 1: QVQLVESGGGLVKPGGSLRLSCAASGFTFSSKTMNWVRQAPGKGLEWVSSISTQSHYIYYAESVRGRFTISRDNAKNSLYLQMNSLRAEDTAVYYCARYGKREDMLWVFDYWGQGTLVTVSSASTKGPSVFPLAPSSKSTSGGTAALGCLVKDYFPEPVTVSWNSGALTSGVHTFPAVLQSSGLYSLSSVVTVPSSSLGTQTYICNVNHKPSNTKVDKKVEPKSCDKTHTCPPCPAPEFQWGPMVFLFPPKPKDVLMISRTPEVTCVVVDVSDEEPEVKFNWYVDGVEVHNAKTKPREEQYNATYRVVSVLPVLHQDWLNGKEYKCKVSNDALPAPEEKTISKAKGQPREPQVCTLPPSRDELTKNQVSLWCLVKGFYPSDIAVEWESNGQPENNYKTTPPVLDSDGSFFLYSKLTVDKSRWQQGNVFSCSVMHEALHNHYTQKSLSLSP heavy 2: QVQLVESGGGLVKPGGSLRLSCAASGFTFSSKTMNWVRQAPGKGLEWVSSISTQSHYIYYAESVRGRFTISRDNAKNSLYLQMNSLRAEDTAVYYCARYGKREDMLWVFDYWGQGTLVTVSSASTKGPSVFPLAPSSKSTSGGTAALGCLVKDYFPEPVTVSWNSGALTSGVHTFPAVLQSSGLYSLSSVVTVPSSSLGTQTYICNVNHKPSNTKVDKKVEPKSCDKTHTCPPCPAPELLAGPSVFLFPPKPKDVLMISRTPEVTCVVVDVSHEEPEVKFNWYVDGVEVHNAKTKPREEQYNATYRVVSVLPVLHQDWLNGKEYKCKVSNDALPAPEEETISKAKGQPREPQVYTLPPSRCELTKNQVSLSCAVKGFYPSDIAVEWESNGQPENNYKTTPPVLDSDGSFFLVSKLTVDKSRWQQGNVFSCSVMHEALHNHYTQKSLSLSP light: QSALTQPPSASGSPGQSVTISCEGPSTGVGDYNWVHWYQQHPGKAPKLMIYFTSKKPSGVPDRFSGSKSGNTASLTVSGLQAEDEADYYCQTYAAPLGPMFGGGTKLTVLGQPKAAPSVTLFPPSSEELQANKATLVCLISDFYPGAVTVAWKADSSPVKAGVETTTPSKQSNNKYAASSYLSLTPEQWKSHRSYSCQVTHEGSTVEKTVAPTECS"
